Data taken from patent US20020051821A1, “Aliginate particle formulation” (priority 2000, published 2002).

Assay type: in vitro ADME
Conditions: human, topical or ocular, 3 mg
Description: For a composition performance test that more closely parallels eventual practical use, candidate particle compositions can be injected into dermatomed, full thickness human skin samples. Replicate skin samples after injection can be placed on modified Franz diffusion cells containing 32° C. water, physiologic saline or buffer. Additives such as surfactants may be used to prevent binding to diffusion cell components and to maintain sink conditions. Two kinds of measurements can be made to assess performance of the formulation in the skin.
To measure the formulation performance in vitro, the active (guest) component(s) of candidate compositions can be collected by complete or aliquot replacement of the Franz cell receiver solution at predetermined time intervals for chemical assay using HPLC or other suitable analytical technique. Concentration data can be used to generate a delivery profile and calculate a steady state permeation rate. This technique can be used to screen formulations for early indication of drug binding to skin, drug dissolution, efficiency of particle penetration of stratum corneum, etc., prior to in vivo studies.
Modified Franz cells (6.9 ml) were designed for investigation of transdermal flux (FIG. 1). […]

| Substance | Bioavailability [%] |
| --- | --- |
| lysozyme [Neat lysozyme] | 7.1 |
| Alginate | 63.8 |
